Assay results as given in the supplement of paper PMC11865577.

How the values were obtained:
Assay in all cases: pull-down binding Z-score (relative to library population); higher = stronger binding
[1] = test system: TO-3-N3-2 (biotin conjugate); settings: RNA library: Library-2
Method in brief: (§1)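 To score binding, a beads-only signal was subtracted, barcoded replicate probes were averaged with the highest and lowest dropped, and the value was converted to a Z-score using the library mean and standard deviation. The input was 1 μg of Cy5- or Cy3-end-labelled RNA library, heat-folded in phosphate/NaCl/KCl buffer and mixed for 60 min at 25 °C with streptavidin beads carrying 100 pmol of biotin-conjugated small molecule. Bound RNA was eluted in hot SDS and hybridised to a DNA barcode microarray at 55.5 °C for 20 h.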

[2] = test system: TO-3-N3 (biotin conjugate); settings: RNA library: Library-2
Method in brief: as §1

[3] = test system: G-clamp-N3 (biotin conjugate); settings: RNA library: Library-1 (pre-miRNA loops + repeats)
Method in brief: as §1

[4] = test system: TO-N3-2 (biotin conjugate); settings: RNA library: Library-2
Method in brief: as §1

TO-N3 (biotin conjugate) = settings: RNA library: Library-2
Method in brief: as §1

| Sequence | pull-down binding Z-score [1] | pull-down binding Z-score [2] | pull-down binding Z-score [3] | pull-down binding Z-score [4] | pull-down binding Z-score (TO-N3 (biotin conjugate)) |
| --- | --- | --- | --- | --- | --- |
| GCUGUUGGUCGGGUUGUGACAUUGCCCGCUGUGGAGAUAACUGC [hsa-let-7i] | 0.672 | -0.307 | -0.338 | 1.01 | 0.207 |
| AAAUGAGAGUUAGCCAGGAGCUUUGCAUACUCA [hsa-mir-6801] | -0.0024 | -0.384 | -1.22 | 0.66 | -0.00733 |
| GGAGAGGAUCCACCUGUCCUGUCC [hsa-mir-6165] | -0.113 | 0.416 | 0.202 | 0.393 | 0.374 |
| GGCGGCUCGGAGUACCUCUGCCGCC [hsa-mir-6869] | -0.0436 | 0.86 | 0.238 | -0.0185 | 0.666 |
| GCUGAGCCCUUUGAUAAGGGGGAGGUU [hsa-mir-8080] | -0.219 | 0.21 | -0.454 | 0.545 | 0.361 |
| GCCAGAUGCUGAGCGAUGGC [hsa-mir-4730] | -0.12 | -0.32 | 0.503 | 0.603 | -0.217 |
| UUCUAGUCCCUAUUAGACUAGAA [hsa-mir-5681a] | -0.506 | -0.543 | -0.692 | -1.08 | -1 |
| UUGAGCAUCUUCUGGGCAGCUGA [hsa-mir-7854] | 0.147 | -0.0613 | -0.764 | 0.833 | 0.397 |
| AAGCAGGGUUGGGCCUGGUU [hsa-mir-7641-1] | -0.112 | -0.192 | -1.23 | 0.549 | -0.00685 |
| GAAAAAUCCCUGUUAACUUUC [hsa-mir-6833] | 0.174 | -0.143 | -0.686 | 0.133 | -0.225 |
| CUAACAGGCCCCUGUCACCAUUAG [hsa-mir-5579] | -0.144 | -0.463 | -0.762 | 0.236 | -0.073 |
| UGUGGUUGGGGCCAUGGCGGGUGGGCAGCCCAGCCUCUGAGCCUUCCU [hsa-mir-1238] | 1.74 | 2.04 | -0.179 | 2.37 | 2.76 |
| CGCGCGUCGAGUCAGCCGUGUG [hsa-mir-933] | -0.276 | -0.126 | 1.31 | 0.532 | 0.126 |
| AGGCCAUACGUGUUGGAGAUU [hsa-mir-4461] | 0.301 | 0.627 | 0.253 | 0.79 | 0.792 |
| AGCCAAAAUCACCAGGGA [hsa-mir-4534] | 0.118 | -0.0499 | 0.0802 | 0.563 | 0.259 |
| UUUGCCAUUACUUUCAGUGGCAAA [hsa-mir-548aq] | -0.894 | -0.975 | 0.135 | -1.11 | -1.48 |
| CAGUGGCAUCUGUCAUUG [hsa-mir-4663] | -0.425 | -0.159 | -0.635 | -0.784 | -0.508 |
| AACUCUGUUGAAUAUAAAUUGGAAUU [hsa-mir-367] | 0.00577 | -0.404 | -0.214 | -0.424 | -0.572 |
| UUCUGUGGUUUGAAAGGAA [hsa-mir-1323] | 0.281 | 0.85 | 1.07 | -0.252 | 0.444 |

| Sequence | pull-down binding Z-score [1] | pull-down binding Z-score [2] | pull-down binding Z-score [3] | pull-down binding Z-score [4] | pull-down binding Z-score (TO-N3 (biotin conjugate)) |
| --- | --- | --- | --- | --- | --- |
| GUUGGGGAACAGGUGGUUAGCACUUCAU [hsa-mir-5196] | 0.521 | 1.07 | 0.351 | 0.81 | 1.35 |
| CCUUCUACCAAGUUAAGCAUACUCAUUAGAAGG [hsa-mir-3914-2] | -0.151 | 0.653 | -0.275 | -0.346 | 0.418 |
| UGGCCUGGCAGUGCGUCGGAAGAACAGGGCGGGUGGGGCC [hsa-mir-4792] | 3.11 | 4 | 2.84 | 3.57 | 3.93 |
| GCUGGGGCGCGGGCUUUCGCUUUCAGUCGAGGGCUAGCGAGCGCAGC [hsa-mir-7846] | 0.105 | 0.914 | 1.79 | 1.12 | 1.12 |
| CACGCCGCGCCGCCGGGUCCCUCCUCCCCGGAGAGGCUG [hsa-mir-4674] | -0.048 | 0.257 | 0.455 | 1.56 | 0.606 |
| AUUUAUGUGAACUAAAAUAUAAAU [hsa-mir-513b] | 0.14 | 1.21 | -0.828 | -0.599 | 1.03 |
| UGAGCAGGCCCAGAACCCAGCUCGUGCUCA [hsa-mir-6794] | -0.114 | 0.387 | 0.169 | 0.805 | 0.56 |
| CAUUUCCUUCAUGAUUAGGAAUACUACUUUGAAAUG [hsa-mir-4712] | -0.179 | -0.641 | -0.338 | -0.896 | -0.856 |
| UAAGUUGUGAUCAUACCA [hsa-mir-1273g] | -0.0944 | -0.424 | -1.51 | 0.165 | -0.24 |
| CUGGUGUUCUCACGCAAAGUGGCCAGGGUGUGGGAGACUAGA [hsa-mir-7161] | 0.556 | 0.688 | 2.32 | 1.34 | 1.14 |
| CAGUGCUUUUAGAAAAUUUGUGUG [hsa-mir-581] | 0.00216 | -0.514 | -0.904 | -0.187 | -0.558 |
| UCAUAAAGAUGAUC [hsa-mir-8067] | 0.0624 | 0.251 | -0.0232 | 0.0453 | 0.381 |
| CGGGGCGGACGCAGAGCCGCGUUUAGUCUAUCG [hsa-mir-639] | -0.137 | 0.0365 | -0.413 | 1.12 | 0.593 |
| UUUGUGUAAGGAAUUUUGUGGUCACAAA [hsa-mir-10a] | -0.175 | -1.06 | 1.29 | -0.825 | -1.25 |
| UGUGUGUCGCUCCGGGUCCACG [hsa-mir-574] | -0.0762 | 0.0307 | 0.438 | 1.25 | 0.516 |
| AAUGCUGUGUUUCUGUAUGGUAUU [hsa-mir-92a-1] | -0.22 | 0.212 | -0.453 | -0.268 | 0.143 |
| GUUGUUUUUAGAUAACUAAAUCGACAAC [hsa-mir-7-1] | 0.0396 | 0.721 | 0.109 | 0.0256 | 0.59 |
| UUUUGCAAUUUUUUAAUGACAAAA [hsa-mir-548t] | -0.334 | -0.494 | -0.195 | -0.704 | -0.585 |
